Laboratory results: publication PMC3257806 (Nature Cell Biology, 2011)

T1: GST-SHARPIN (Homo sapiens, UniProt Q9H0F6)
T1 sequence (Q9H0F6 1-387): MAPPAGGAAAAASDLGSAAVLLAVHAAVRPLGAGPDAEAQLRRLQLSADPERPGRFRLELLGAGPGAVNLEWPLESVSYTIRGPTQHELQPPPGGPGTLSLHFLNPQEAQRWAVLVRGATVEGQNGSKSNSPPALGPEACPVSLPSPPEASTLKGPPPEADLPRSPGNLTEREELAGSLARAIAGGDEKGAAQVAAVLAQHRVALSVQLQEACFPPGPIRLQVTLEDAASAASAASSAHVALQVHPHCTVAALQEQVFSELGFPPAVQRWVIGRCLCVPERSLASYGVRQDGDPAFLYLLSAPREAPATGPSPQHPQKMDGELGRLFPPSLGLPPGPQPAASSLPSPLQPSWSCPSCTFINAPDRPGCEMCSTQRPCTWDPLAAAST


What was measured:
[1] = target: T1, GST-SHARPIN; type: binding; conditions: 2.5 μM biotinylated peptide on streptavidin-sepharose beads; Western blot
[2] = target: EDANS-labelled wild-type α2-peptide (α2-wt); assay: fluorescence polarisation

Row | interaction of recombinant GST-SHARPIN with biotinylated peptide (pull-down) [1] | Kd [2] | Molecule
1 | did not interact | – | β1-tail: peptide of the cytoplasmic domain of β1-integrin, biotinylated or unlabelled
2 | – | 26 µM | recombinant GST-SHARPIN (natural protein) MAPPAGGAAAAASDLGSAAVLLAVHAAVRPLGAGPDAEAQLRRLQLSADPERPGRFRLELLGAGPGAVNLEWPLESVSYTIRGPTQHELQPPPGGPGTLSLHFLNPQEAQRWAVLVRGATVEGQNGSKSNSPPALGPEACPVSLPSPPEASTLKGPPPEADLPRSPGNLTEREELAGSLARAIAGGDEKGAAQVAAVLAQHRVALSVQLQEACFPPGPIRLQVTLEDAASAASAASSAHVALQVHPHCTVAALQEQVFSELGFPPAVQRWVIGRCLCVPERSLASYGVRQDGDPAFLYLLSAPREAPATGPSPQHPQKMDGELGRLFPPSLGLPPGPQPAASSLPSPLQPSWSCPSCTFINAPDRPGCEMCSTQRPCTWDPLAAAST
